Source: US20260116987A1 (Gilead, published 2026)

T1: Human CCR4 expressed on CHO-S cells (human, UniProt P51679 1-360)
T1 construct: whole, on cells; also called CCR4-expressing CHO-S cells
T1 sequence (looked up): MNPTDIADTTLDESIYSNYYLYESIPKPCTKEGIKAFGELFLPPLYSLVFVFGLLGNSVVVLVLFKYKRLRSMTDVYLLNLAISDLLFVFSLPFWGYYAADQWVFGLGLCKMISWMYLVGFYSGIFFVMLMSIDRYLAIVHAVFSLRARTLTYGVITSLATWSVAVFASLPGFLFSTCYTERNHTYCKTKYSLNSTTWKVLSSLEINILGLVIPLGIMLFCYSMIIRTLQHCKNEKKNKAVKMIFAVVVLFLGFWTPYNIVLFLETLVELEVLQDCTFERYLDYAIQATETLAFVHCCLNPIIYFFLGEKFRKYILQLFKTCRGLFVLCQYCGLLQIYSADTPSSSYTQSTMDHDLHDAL


How the values were obtained:
[1] = target: T2, Human CCR8 on human CCR8-overexpression lipoparticles (human, UniProt P51685 1-355); assay: sequential format ELISA on human CCR8-overexpression lipoparticles; competitor 6-B09
T2 sequence (P51685 whole entry): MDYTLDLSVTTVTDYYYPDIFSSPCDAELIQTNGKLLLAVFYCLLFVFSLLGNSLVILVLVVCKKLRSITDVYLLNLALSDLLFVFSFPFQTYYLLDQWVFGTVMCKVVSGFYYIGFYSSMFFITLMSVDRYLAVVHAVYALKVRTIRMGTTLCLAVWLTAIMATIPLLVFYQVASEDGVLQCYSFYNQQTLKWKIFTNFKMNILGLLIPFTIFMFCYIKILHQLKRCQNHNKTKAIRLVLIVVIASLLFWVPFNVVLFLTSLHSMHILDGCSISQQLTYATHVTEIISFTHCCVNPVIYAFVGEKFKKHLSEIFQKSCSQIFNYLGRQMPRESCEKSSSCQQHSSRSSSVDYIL

[2] = target: T2, Human CCR8 on human CCR8-overexpression …; assay: sequential format ELISA on human CCR8-overexpression lipoparticles; competitor 1-K17
[3] = target: T3, Human CCR8 (C-C chemokine receptor type 8) expressed on CHO-S cells (human, UniProt P51685 1-355); assay: flow cytometry epitope binning, tandem format, human CCR8-overexpressing cells; competitor 1-K16
T3 construct: also called huCCR8; human CCR8-expressing CHO-S cells
T3 sequence (P51685 whole entry): as above
Description: (§1) A subset of antibodies against human CCR8 were epitope binned using flow cytometry method in tandem format. Briefly, one set of antibodies was biotinylated. Human CCR8-overexpressing cells were incubated at 4° C., with the non-biotinylated antibodies at 10 μg/mL for 1 hour, then without washing the biotinylated antibodies were added at 10 μg/mL. After a further 1-hour incubation, cells were washed three times and then stained with streptavidin-phycoerythrin (PE-strep) secondary antibody for 30 minutes. Binding competition was determined by detecting PE by flow cytometry. The response values were normalized as the % of the maximum binding of the individual antibody.

[4] = target: T3, Human CCR8 (C-C chemokine receptor type …); assay: cell-based or functional assay
[5] = target: T3, Human CCR8 (C-C chemokine receptor type …); assay: flow cytometry epitope binning, tandem format, human CCR8-overexpressing cells; competitor 19-O07
Description: as §1

[6] = target: T1, Human CCR4 expressed on CHO-S cells; assay: flow cytometry
[7] = target: T2, Human CCR8 on human CCR8-overexpression …; assay: sequential format ELISA on human CCR8-overexpression lipoparticles; competitor 7-B16
[8] = target: T3, Human CCR8 (C-C chemokine receptor type …); assay: flow cytometry epitope binning, tandem format, human CCR8-overexpressing cells; competitor 6-B09
Description: as §1

[9] = target: T3, Human CCR8 (C-C chemokine receptor type …); assay: flow cytometry epitope binning, tandem format, human CCR8-overexpressing cells; competitor 7-B16
Description: as §1

[10] = target: T2, Human CCR8 on human CCR8-overexpression …; assay: sequential format ELISA on human CCR8-overexpression lipoparticles; competitor 1-K16
[11] = target: T2, Human CCR8 on human CCR8-overexpression …; assay: sequential format ELISA on human CCR8-overexpression lipoparticles; competitor 19-O07
[12] = target: T3, Human CCR8 (C-C chemokine receptor type …); assay: flow cytometry epitope binning, tandem format, human CCR8-overexpressing cells; competitor 1-K17
Description: as §1

[13] = target: T3, Human CCR8 (C-C chemokine receptor type …); assay: flow cytometry on CHO cells expressing CCR8, EC50 column
Description: CCR8 binding was determined using flow cytometry according to the same methods used in Example 4, Briefly, antibodies were screened for specific binding to human CCR8 by flow cytometry using human CCR8-overexpressing and parental CHO—S cell line. Antibodies specifically binding to human CCR8 were also tested for binding to CCR4 by flow cytometry.

[14] = target: T3, Human CCR8 (C-C chemokine receptor type …); assay: cell-based or functional assay; remark: listed apart in the source

| Binder | ELISA epitope binning signal [1] | ELISA epitope binning signal [2] | % of the maximum binding [3] | IC50, antagonist activity in DiscoverX PathHunter beta-arrestin assay with 13.7 nM human CCL1 [4] | % of the maximum binding [5] | binding result [6] | ELISA epitope binning signal [7] | % of the maximum binding [8] | % of the maximum binding [9] | ELISA epitope binning signal [10] | ELISA epitope binning signal [11] | % of the maximum binding [12] | binding result [13] | EC50 of ADCC function (Promega ADCC reporter bioassay) [14] |
| --- | --- | --- | --- | --- | --- | --- | --- | --- | --- | --- | --- | --- | --- | --- |
| 19-O07 chimera (human IgG1) (antibody, also called 19-007; 19-O07 chimeric antibody) heavy: not shown light: DVVMTQTPLTLSVTIGQPASISCKSSQSLLYSNGKTYLNWLLQRPGQSPKRLIYLVSKLDSGVPDRFTGSGSGTDFTLKISRVEAEDLGVYYCVQGTRFPWTFGGGTNLEIKRTVAAPSVFIFPPSDEQLKSGTASVVCLLNNFYPREAKVQWKVDNALQSGNSQESVTEQDSKDSTYSLSSTLTLSKADYEKHKVYACEVTHQGLSSPVTKSFNRGEC | 0.679 | 0.784 | 109% | 995 µg/mL | 54% | no binding | 1.02 | 39% | 108% | 0.882 | 0.817 | 91% |  |  |
| 1-K16 chimera (human IgG1) (antibody, also called 1-K16 chimeric antibody) heavy: not shown light: DIVMTQAAPSVPVTPGESVSISCRSSKSLLHSNGNTYLYWFLQRPGQSPQLLIYRMSNLASGVPDRFSGSGSGTAFTLRISRVEAEDVGVYYCMQHLEYPFTFGAGTKLELKRTVAAPSVFIFPPSDEQLKSGTASVVCLLNNFYPREAKVQWKVDNALQSGNSQESVTEQDSKDSTYSLSSTLTLSKADYEKHKVYACEVTHQGLSSPVTKSFNRGEC | 0.964 | 0.794 | 31% | 4.55 µg/mL | 149% | no binding | 0.758 | 167% | 88% | 0.264 | 1.49 | 32% |  |  |
| 7B16-H1.001 (CDR H1 swapped mutant of 7-B16) (antibody, V domains shown, also called CDR swapped variant H1) VH: EVQLVESGGGLVQPKGSLKLSCAASGFTFSGSAMHWVRQAPGKGLEWVARIRSKSNNYATYYADSVKDRFTISRDDSQSMLYLQMNNLKTEDTAMYYCVRGLLRYRFFDVWGAGTTVTVSS VL: DIVMTQAEPSVPVTPGESISISCRSSKSLLHSNGNTYLYWFLQRPGQSPQLLIYRMSNLASGVPDRFSGSGSGTAFTLRISRVEAEDVGVYYCMQHLEYPFTFGGGTKLEIKR |  |  |  |  |  |  |  |  |  |  |  |  | no binding |  |
| 13-E16 chimera (human IgG1) (antibody, also called 13-E16 chimeric antibody) heavy: not shown light: QIVLTQSPAIMSASPGEKVTITCSASSSVSYMHWFQQKPGTSPKLWIYSTSNLASGVPARFSGSGSGTSYFLTISRMEAEDAATYYCQQRSSYPYTFGGGTKLERKRTVAAPSVFIFPPSDEQLKSGTASVVCLLNNFYPREAKVQWKVDNALQSGNSQESVTEQDSKDSTYSLSSTLTLSKADYEKHKVYACEVTHQGLSSPVTKSFNRGEC |  |  |  | 12.6 µg/mL |  | no binding |  |  |  |  |  |  |  | 0.0549 µg/mL |
